According to publication PMC5648754, “CryoEM structure of Saccharomyces cerevisiae U1 snRNP offers insight into alternative splicing” (Nature Communications, 2017):

T1: yeast Prp39 (S. cerevisiae, UniProt P39682 1-629)
T1 construct: Prp39 of S. cerevisiae, 629 residues; C-terminal TPR domain 326-552 and C-terminal region 561-627 built, 43-285 docked as homology model; source: endogenous, S. cerevisiae; co-purified in U1 snRNP through the TAP tag on U1A
T1 sequence (looked up): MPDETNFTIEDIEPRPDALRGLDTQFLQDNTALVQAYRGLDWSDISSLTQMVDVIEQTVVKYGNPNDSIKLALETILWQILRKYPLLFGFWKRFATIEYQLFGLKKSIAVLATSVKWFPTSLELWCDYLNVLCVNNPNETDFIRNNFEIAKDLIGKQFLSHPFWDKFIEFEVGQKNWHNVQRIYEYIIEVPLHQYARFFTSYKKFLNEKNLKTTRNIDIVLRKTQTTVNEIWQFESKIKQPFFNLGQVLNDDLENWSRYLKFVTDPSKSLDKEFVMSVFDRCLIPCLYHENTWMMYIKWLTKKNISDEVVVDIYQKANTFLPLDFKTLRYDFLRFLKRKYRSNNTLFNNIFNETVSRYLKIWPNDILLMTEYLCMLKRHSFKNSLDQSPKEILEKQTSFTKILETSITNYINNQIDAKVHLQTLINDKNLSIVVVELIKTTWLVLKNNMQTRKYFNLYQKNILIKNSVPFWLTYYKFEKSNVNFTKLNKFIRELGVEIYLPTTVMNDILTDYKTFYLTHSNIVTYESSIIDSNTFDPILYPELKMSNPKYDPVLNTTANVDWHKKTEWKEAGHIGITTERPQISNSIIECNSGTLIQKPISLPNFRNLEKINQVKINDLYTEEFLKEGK

T2: yeast Snu71 (S. cerevisiae, UniProt P53207 1-620)
T2 construct: Snu71 of S. cerevisiae U1 snRNP; not modelled in the structure; source: endogenous, S. cerevisiae; co-purified in U1 snRNP through the TAP tag on U1A
T2 sequence (looked up): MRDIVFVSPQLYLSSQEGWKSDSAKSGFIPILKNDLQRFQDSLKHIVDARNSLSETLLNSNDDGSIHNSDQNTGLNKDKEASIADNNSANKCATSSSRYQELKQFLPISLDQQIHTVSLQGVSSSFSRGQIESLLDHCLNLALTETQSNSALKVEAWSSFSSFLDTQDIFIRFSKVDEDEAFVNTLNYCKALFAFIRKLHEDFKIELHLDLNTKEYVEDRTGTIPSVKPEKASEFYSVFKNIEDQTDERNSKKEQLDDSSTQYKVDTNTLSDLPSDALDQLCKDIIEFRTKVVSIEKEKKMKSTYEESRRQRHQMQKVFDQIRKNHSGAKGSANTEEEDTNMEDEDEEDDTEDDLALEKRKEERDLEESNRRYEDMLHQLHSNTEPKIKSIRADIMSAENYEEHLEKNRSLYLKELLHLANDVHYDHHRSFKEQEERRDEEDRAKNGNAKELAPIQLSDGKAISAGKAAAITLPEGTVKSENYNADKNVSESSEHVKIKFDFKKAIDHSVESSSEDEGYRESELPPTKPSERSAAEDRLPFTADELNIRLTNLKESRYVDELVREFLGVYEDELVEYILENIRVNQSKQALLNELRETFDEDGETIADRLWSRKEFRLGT

T3: yeast U1-70K (S. cerevisiae, UniProt Q00916 1-300)
T3 construct: U1-70K of S. cerevisiae U1 snRNP; residues 3-91 built, 94-188 (RRM) docked as homology model; source: endogenous, S. cerevisiae; co-purified in U1 snRNP through the TAP tag on U1A
T3 sequence (looked up): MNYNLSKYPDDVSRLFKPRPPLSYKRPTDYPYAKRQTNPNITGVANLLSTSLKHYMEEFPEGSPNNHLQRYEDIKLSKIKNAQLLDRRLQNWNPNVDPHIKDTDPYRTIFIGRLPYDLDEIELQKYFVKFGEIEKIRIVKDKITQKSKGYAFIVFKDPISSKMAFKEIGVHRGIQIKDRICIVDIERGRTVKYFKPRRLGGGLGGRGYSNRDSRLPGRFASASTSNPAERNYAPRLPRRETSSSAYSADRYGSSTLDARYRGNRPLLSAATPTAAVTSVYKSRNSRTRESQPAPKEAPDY

B1: yeast Nam8 (natural protein, S. cerevisiae, UniProt Q00539 1-523, looked up)
chain: MSYKQTTYYPSRGNLVRNDSSPYTNTISSETNNSSTSVLSLQGASNVSLGTTGNQLYMGDLDPTWDKNTVRQIWASLGEANINVRMMWNNTLNNGSRSSMGPKNNQGYCFVDFPSSTHAANALLKNGMLIPNFPNKKLKLNWATSSYSNSNNSLNNVKSGNNCSIFVGDLAPNVTESQLFELFINRYASTSHAKIVHDQVTGMSKGYGFVKFTNSDEQQLALSEMQGVFLNGRAIKVGPTSGQQQHVSGNNDYNRSSSSLNNENVDSRFLSKGQSFLSNGNNNMGFKRNHMSQFIYPVQQQPSLNHFTDPNNTTVFIGGLSSLVTEDELRAYFQPFGTIVYVKIPVGKCCGFVQYVDRLSAEAAIAGMQGFPIANSRVRLSWGRSAKQTALLQQAMLSNSLQVQQQQPGLQQPNYGYIPSSTCEAPVLPDNNVSSTMLPGCQILNYSNPYANANGLGSNNFSFYSNNNATNTQATSLLADTSSMDLSGTGGQQVIMQGSEAVVNSTNAMLNRLEQGSNGFMFA
notes: Nam8 of S. cerevisiae, 523 residues; inter-RRM linker 289-302 and RRM3 303-383 and C-terminal tail modelled; source: endogenous, S. cerevisiae; co-purified in U1 snRNP through the TAP tag on U1A
B2: yeast Snu56 (natural protein, S. cerevisiae, UniProt Q03782 1-492, looked up)
chain: MRPRRRGLAYHHTKPKGQLSQGHYPTTSNDGQRRKVGNSEAFQSFDIWKNLDRIRSTKKNAGQFIKGSLLILPMRTEDKQQFDECMDELHKYISKDILRCYPQKEQKDEGMLFYIVLKDFNILDSCFVLSVLLAFQKRLWMAPSEKSYFRVPKNINLTGSFYLPKNIETGRGHIITSYRREQPSSSIVEVGFNVVPDFQQFQVKACHVSKFMNELSNFFSQVEFGKCEANVINYFKREYNRTYSQISLALYELPLIGDGLFDIKSYISKTRPIIETSKAQMIKHISEMKAYNEISGLQGDQFPRQQRPLSNSPSSNSISSSQTIEAGATSYQTQPQRHAVNKPSNVLNSSNRHSGPKTFEDGRYSEGNKPGFMTQDEIKQHCIGTIKASMDAVKKKSSYQILKTYVRCPRQNYIDIVYQNLNDLRSKTNCNIVVLNLNNLHESQMWLESLNTTNYTIFAQAPHPSTIRVISIGGVGEYIVKALELILNILEH
notes: Snu56 of S. cerevisiae, 492 residues; N-terminal domain 47-254 and long helix 255-303 modelled; source: endogenous, S. cerevisiae; co-purified in U1 snRNP through the TAP tag on U1A
B3: yeast Prp40 (natural protein, S. cerevisiae, UniProt P33203 1-583, looked up)
chain: MSIWKEAKDASGRIYYYNTLTKKSTWEKPKELISQEELLLRENGWKAAKTADGKVYYYNPTTRETSWTIPAFEKKVEPIAEQKHDTVSHAQVNGNRIALTAGEKQEPGRTINEEESQYANNSKLLNVRRRTKEEAEKEFITMLKENQVDSTWSFSRIISELGTRDPRYWMVDDDPLWKKEMFEKYLSNRSADQLLKEHNETSKFKEAFQKMLQNNSHIKYYTRWPTAKRLIADEPIYKHSVVNEKTKRQTFQDYIDTLIDTQKESKKKLKTQALKELREYLNGIITTSSSETFITWQQLLNHYVFDKSKRYMANRHFKVLTHEDVLNEYLKIVNTIENDLQNKLNELRLRNYTRDRIARDNFKSLLREVPIKIKANTRWSDIYPHIKSDPRFLHMLGRNGSSCLDLFLDFVDEQRMYIFAQRSIAQQTLIDQNFEWNDADSDEITKQNIEKVLENDRKFDKVDKEDISLIVDGLIKQRNEKIQQKLQNERRILEQKKHYFWLLLQRTYTKTGKPKPSTWDLASKELGESLEYKALGDEDNIRRQIFEDFKPESSAPTAESATANLTLTASKKRHLTPAVELDY
notes: Prp40 of S. cerevisiae U1 snRNP; not modelled in the structure; source: endogenous, S. cerevisiae; co-purified in U1 snRNP through the TAP tag on U1A
B4: yeast Prp42 (natural protein, S. cerevisiae, UniProt Q03776 1-544, looked up)
chain: MDKYTALIHDENFSTLTLNVSRYPKSLAYWEKLLNYIVKASAPICKSTEPQLLKLIRCTYSSMLNEFPYLENYYIDFALLEYKLGNVSMSHKIFQRGLQAFNQRSLLLWTSYLKFCNNVISHQKQLFKKYETAEEYVGLHFFSGEFWDLYLEQISSRCTSSKKYWNVLRKILEIPLHSFSKFYALWLQRIDDIMDLKQLSQLTSKDELLKKLKIDINYSGRKGPYLQDAKKKLKKITKEMYMVVQYQVLEIYSIFESKIYINYYTSPETLVSSDEIETWIKYLDYTITLQTDSLTHLNFQRALLPLAHYDLVWIKYSKWLINSKNDLLGAKNVLLMGLKFSLKKTEIIKLLYSVICKLNEYVLLRNLLEKIESSYSDNVENVDDFEIFWDYLQFKTFCQNSLYSSRYSDSQSNGLLNKELFDKVWKRLSCKEKKSGQEILLNNLVQFYSKDTVEFVEKNIFQKIIEFGWEYYLQNGMFWNCYCRLIYFDTSRSYLDKRQYIVRKIWPQIDKKFAQSVLPSLTEFCESYFPEEMDTLEEMFTEEP
notes: Prp42 of S. cerevisiae, 544 residues; residues 2-540 modelled; source: endogenous, S. cerevisiae; co-purified in U1 snRNP through the TAP tag on U1A
B5: yeast SmG (natural protein, S. cerevisiae, UniProt P40204 1-77, looked up)
chain: MVSTPELKKYMDKKILLNINGSRKVAGILRGYDIFLNVVLDDAMEINGEDPANNHQLGLQTVIRGNSIISLEALDAI
notes: SmG of S. cerevisiae, member of the Sm ring of U1 snRNP; source: endogenous, S. cerevisiae; co-purified in U1 snRNP through the TAP tag on U1A
B6: yeast U1C (natural protein, S. cerevisiae, UniProt Q05900 1-231, looked up)
chain: MTRYYCEYCHSYLTHDTLSVRKSHLVGKNHLRITADYYRNKARDIINKHNHKRRHIGKRGRKERENSSQNETLKVTCLSNKEKRHIMHVKKMNQKELAQTSIDTLKLLYDGSPGYSKVFVDANRFDIGDLVKASKLPQRANEKSAHHSFKQTSRSRDETCESNPFPRLNNPKKLEPPKILSQWSNTIPKTSIFYSVDILQTTIKESKKRMHSDGIRKPSSANGYKRRRYGN
notes: U1C of S. cerevisiae U1 snRNP, 231 residues; NTD residues 1-48; residues 3-47 and 48-195 modelled; also called Yhc1; source: endogenous, S. cerevisiae; co-purified in U1 snRNP through the TAP tag on U1A

Key:
Details in all cases: both partners purified
yeast Prp39 = biological target: T1, yeast Prp39; assay: cryo-EM structure; natively purified yeast U1 snRNP, 3.6 Å overall resolution
yeast Prp42 = biological target: B4; assay: as above
yeast Snu71 = biological target: T2, yeast Snu71; assay: cross-linking; purified yeast U1 snRNP cross-linked with 100 uM BS3, 30 min, room temperature; trypsin digest, mass spectrometry
yeast Nam8 = biological target: B1; assay: cryo-EM structure; natively purified yeast U1 snRNP, 3.6 Å overall resolution
yeast U1-70K = biological target: T3, yeast U1-70K; assay: as above

binding result (yeast Prp39) | binding result (yeast Prp42) | binding result (yeast Snu71) | binding result (yeast Nam8) | binding result (yeast U1-70K) | Binder
binds | binds | – | – | – | B1
– | binds | binds | binds | – | B2
– | – | binds | – | – | B3
binds | – | binds | – | – | B4
– | binds | – | – | – | B5
– | binds | – | binds | binds | B6
